The values below are quoted from earlier work in patent publication US11376231B2, “Compositions of bioactive fulvate fractions and uses thereof” (OMNI BIOCEUTICAL INNOVATIONS, INC., priority 2016, dated 2022).

Read-outs that look alike come from different tables or passages of the source.

The subject of this data set is chronic wounds. Also noted: key: N.S. = not statistically significant.

B1: TGF-β2: transforming growth factor-β2 (protein, UniProt P61812 303-414, looked up)
Transforming growth factor …: ALDAAYCFRNVQDNCCLRPLYIDFKRDLGWKWIHEPKGYNANFCAGACPYLWSSDTQHSRVLSLYNTINPEASASPCCVSQDLEPLTILYYIGKTPKIEQLSNMIVKSCKCS
modifications: Transforming growth factor beta-2
For the molecule B1, the Results result (venous (36), 2.5 μg/cm^2 three times per week, Robson et al.) is “N.S”.

B2: PDGF-BB: platelet-derived growth factor BB (protein, UniProt P01127 82-190, looked up)
Platelet-derived growth …: SLGSLTIAEPAMIAECKTRTEVFEISRRLIDRTNANFLVWPPCVEVQRCSGCCNNRNVQCRPTQVQLRPVQVRKIEIVRKKPIFKKATVTLEDHLACKCETVAAARPVT
modifications: homodimer
For the molecule B2, the Results entry by setting is: (pressure (20), 1, 10, and 100 μg/mL daily, Robson et al.) “N.S”; (pressure (45), 1 and 3 μg/mL daily, Mustoe et al.) “N.S”.
